Test results: patent US20090304580A1 (published 2009)
Positions of bridges follow the written chain, without caps; N, C: chain ends. No end group written: not given here.

Key:
[1] = target: T1, PAM4 antigen (human pancreatic cancer mucin, CaPan1) (human); assay: ELISA on target mucin antigen (FIG. 9)
T1 construct: Mucin preparation or cell extract from human pancreatic cancer (CaPan1 xenografts); coated on plates or captured by PAM4 in the immunoassays; also called CaPan1 Ag; CaPan1 antigens

[2] = target: T2, cyclic phage-displayed peptide ACPEWWGTTC (disulfide 2-10); assay: screen of phage-displayed peptides (cyclic library) after panning against hPAM4
T2 construct: also called cyclic peptide
T2 peptide: ACPEWWGTTC

EC50 [1]: 1.31 nM
binding result [2]: binds
B1: humanized PAM4 antibody (hPAM4 IgG) (antibody, V domains shown)
VH: QVQLQQSGAEVKKPGASVKVSCEASGYTFPSYVLHWVKQAPGQGLEWIGYINPYNDGTQYNEKFKGKATLTRDTSINTAYMELSRLRSDDTAVYYCARGFGGSYGFAYWGQGTLVTVSS
VL: DIQLTQSPSSLSASVGDRVTMTCSASSSVSSSYLYWYQQKPGKAPKLWIYSTSNLASGVPARFSGSGSGTDFTLTISSLQPEDSASYFCHQWNRYPYTFGGGTRLEIKR
